± gives the standard error. Fewer inactive variants are shown than the library holds.
B1: glmS ribozyme (parent)
chain: AUAAAAGCGCCAGAACUACAGAAAUGUAGUUGACGAGGAGGAGGUUUAUCGAAUUUUCGGCGGAUGCCUCCAAA

Experiments:
Conditions in all cases: with glucosamine-6-phosphate
[1] = variants of: B1; test: self-cleavage kobs at 40 uM GlcN6P; higher = faster cleavage; RNA array
Method in brief: (§1)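 Tracking of barcoded ribozyme variants used a hybridised Cy3 probe at 37 °C, after in situ transcription by E. coli RNA polymerase on sequenced MiSeq chips. The flowed solution held 40 μM to 10 mM glucosamine-6-phosphate in HEPES/KCl/Mg(OAc)2 buffer, and imaging ran over ~14 h. kobs was taken from exponential decay fits of normalised per-tile medians, and kcat and KM from weighted Michaelis–Menten fits.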

[2] = variants of: B1; test: self-cleavage kobs at 160 uM GlcN6P; higher = faster cleavage; RNA array
Method in brief: as §1

[3] = variants of: B1; test: self-cleavage kobs at 640 uM GlcN6P; higher = faster cleavage; RNA array
Method in brief: as §1

[4] = variants of: B1; test: self-cleavage kobs at 10000 uM GlcN6P; higher = faster cleavage; RNA array
Method in brief: as §1

[5] = variants of: B1; test: self-cleavage kobs at 2500 uM GlcN6P; higher = faster cleavage; RNA array
Method in brief: as §1

| Variant | self-cleavage kobs at 40 uM GlcN6P [1] | self-cleavage kobs at 160 uM GlcN6P [2] | self-cleavage kobs at 640 uM GlcN6P [3] | self-cleavage kobs at 10000 uM GlcN6P [4] | self-cleavage kobs at 2500 uM GlcN6P [5] |
| --- | --- | --- | --- | --- | --- |
| C34U U55G | < 1e-05 s⁻¹ | < 1e-05 s⁻¹ | < 1e-05 s⁻¹ | – | – |
| G44C U55A | < 1e-05 s⁻¹ | < 1e-05 s⁻¹ | < 1e-05 s⁻¹ | – | – |
| G29A A53U C58G | < 1e-05 s⁻¹ | – | – | 5.28e-05 ± 2.2e-05 s⁻¹ | – |
| C34G A42G U56G C67A | < 1e-05 s⁻¹ | – | – | < 1e-05 s⁻¹ | – |
| U31A C71U | 0.000386 ± 3.4e-05 s⁻¹ | 0.000552 ± 0.0001 s⁻¹ | 0.00393 ± 0.00052 s⁻¹ | 0.0362 ± 0.0056 s⁻¹ | 0.00846 ± 0.0018 s⁻¹ |
| G63U A64G | < 1e-05 s⁻¹ | < 1e-05 s⁻¹ | < 1e-05 s⁻¹ | < 1e-05 s⁻¹ | – |
| G9U G37A C67U C71G | < 1e-05 s⁻¹ | – | – | – | – |
| A42U A52U A64U G66U | < 1e-05 s⁻¹ | – | – | – | – |
| C34G C50A A53G | < 1e-05 s⁻¹ | – | – | – | – |
| C11U A14C G38A C61G | < 1e-05 s⁻¹ | – | – | – | – |
| A42U G59U | < 1e-05 s⁻¹ | < 1e-05 s⁻¹ | < 1e-05 s⁻¹ | < 1e-05 s⁻¹ | – |
| A42U G59C | < 1e-05 s⁻¹ | < 1e-05 s⁻¹ | < 1e-05 s⁻¹ | < 1e-05 s⁻¹ | < 1e-05 s⁻¹ |
| U45A G66A | 0.000969 ± 0.00013 s⁻¹ | 0.00224 ± 0.00044 s⁻¹ | 0.00848 ± 0.0021 s⁻¹ | 0.0359 ± 0.011 s⁻¹ | 0.00884 ± 0.002 s⁻¹ |
| G41A C58A | < 1e-05 s⁻¹ | – | < 1e-05 s⁻¹ | – | – |
| G38U G41C C68G | < 1e-05 s⁻¹ | – | – | < 1e-05 s⁻¹ | – |
| A33G U46G G62C | < 1e-05 s⁻¹ | – | < 1e-05 s⁻¹ | – | < 1e-05 s⁻¹ |
| U31C G43U G66A | < 1e-05 s⁻¹ | – | – | – | – |
| G7A A14G U49C | < 1e-05 s⁻¹ | – | – | < 1e-05 s⁻¹ | – |
| A6C A14C U31G A48G G51U C58U C61A | 8.19e-05 ± 3.4e-05 s⁻¹ | – | – | – | – |
| A6G A15G G66U C70U | < 1e-05 s⁻¹ | – | – | – | – |
| G13U U49A C58A C68U C70U | < 1e-05 s⁻¹ | – | – | – | – |
| C10U A33U G35A | < 1e-05 s⁻¹ | – | – | < 1e-05 s⁻¹ | – |
| C10G U45G | < 1e-05 s⁻¹ | < 1e-05 s⁻¹ | < 1e-05 s⁻¹ | < 1e-05 s⁻¹ | < 1e-05 s⁻¹ |
| G43U U54A | < 1e-05 s⁻¹ | – | – | 6.37e-05 ± 2e-05 s⁻¹ | – |
| A14U G43A U55A C61A | < 1e-05 s⁻¹ | – | – | < 1e-05 s⁻¹ | – |
| C8A A15U G38A G41C A53G | < 1e-05 s⁻¹ | – | – | – | – |
| C10A C16U | < 1e-05 s⁻¹ | < 1e-05 s⁻¹ | < 1e-05 s⁻¹ | – | – |

Reference: the supplement of paper PMC7125110
